Experiments:
[1] = molecular target: T1, CILP2 (human, UniProt Q8IUL8 21-1156); experiment: Retrogenix cell microarray
T1 construct: whole, on cells; Secreted protein; tether not described; also called cartilage intermediate layer protein 2 (on transfected cells)
T1 sequence (looked up): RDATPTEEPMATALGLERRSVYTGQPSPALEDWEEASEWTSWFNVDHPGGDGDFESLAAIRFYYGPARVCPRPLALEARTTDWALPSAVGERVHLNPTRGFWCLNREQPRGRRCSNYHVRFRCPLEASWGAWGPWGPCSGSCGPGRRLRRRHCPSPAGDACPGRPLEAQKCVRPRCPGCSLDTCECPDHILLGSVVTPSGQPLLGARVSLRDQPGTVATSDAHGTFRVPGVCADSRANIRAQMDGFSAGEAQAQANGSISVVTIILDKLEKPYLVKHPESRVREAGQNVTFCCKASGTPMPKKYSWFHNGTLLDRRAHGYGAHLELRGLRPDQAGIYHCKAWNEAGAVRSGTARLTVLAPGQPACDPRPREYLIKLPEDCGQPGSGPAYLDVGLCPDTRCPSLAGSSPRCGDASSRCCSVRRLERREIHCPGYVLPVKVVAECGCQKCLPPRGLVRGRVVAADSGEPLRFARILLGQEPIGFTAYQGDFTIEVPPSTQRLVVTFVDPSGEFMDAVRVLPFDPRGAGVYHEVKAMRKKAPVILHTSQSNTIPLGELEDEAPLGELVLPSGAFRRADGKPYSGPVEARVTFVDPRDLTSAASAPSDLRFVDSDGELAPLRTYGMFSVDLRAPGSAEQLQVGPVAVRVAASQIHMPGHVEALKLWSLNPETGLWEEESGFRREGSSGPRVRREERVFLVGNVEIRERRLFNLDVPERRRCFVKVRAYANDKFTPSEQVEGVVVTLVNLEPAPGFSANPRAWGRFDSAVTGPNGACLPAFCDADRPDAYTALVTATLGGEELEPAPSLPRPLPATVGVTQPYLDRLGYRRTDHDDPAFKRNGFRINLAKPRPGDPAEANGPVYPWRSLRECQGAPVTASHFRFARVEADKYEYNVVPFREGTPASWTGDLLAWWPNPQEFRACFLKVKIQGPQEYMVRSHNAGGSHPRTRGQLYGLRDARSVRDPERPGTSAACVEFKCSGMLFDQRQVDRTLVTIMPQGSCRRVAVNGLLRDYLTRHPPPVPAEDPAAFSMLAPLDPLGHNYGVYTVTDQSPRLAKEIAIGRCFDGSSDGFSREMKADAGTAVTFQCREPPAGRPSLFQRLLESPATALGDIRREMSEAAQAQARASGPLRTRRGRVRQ

[2] = molecular target: T2, Human CD122 (human, UniProt P14784 27-551); experiment: cell-based or functional assay
T2 sequence: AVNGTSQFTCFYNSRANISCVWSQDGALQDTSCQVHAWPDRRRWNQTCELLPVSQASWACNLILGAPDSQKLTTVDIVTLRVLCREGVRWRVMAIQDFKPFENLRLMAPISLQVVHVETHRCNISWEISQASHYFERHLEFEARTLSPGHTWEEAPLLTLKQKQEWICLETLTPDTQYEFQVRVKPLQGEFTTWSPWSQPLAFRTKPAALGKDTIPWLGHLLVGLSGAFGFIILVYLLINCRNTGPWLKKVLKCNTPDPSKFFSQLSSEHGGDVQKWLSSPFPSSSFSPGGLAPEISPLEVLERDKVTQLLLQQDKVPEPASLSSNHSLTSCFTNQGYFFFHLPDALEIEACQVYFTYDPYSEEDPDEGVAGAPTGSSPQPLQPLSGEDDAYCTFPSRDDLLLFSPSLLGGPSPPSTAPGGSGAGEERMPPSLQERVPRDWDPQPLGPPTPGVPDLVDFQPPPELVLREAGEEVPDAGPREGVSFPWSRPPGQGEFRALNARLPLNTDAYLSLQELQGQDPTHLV

[3] = molecular target: T3, CD20 (human, UniProt P11836 1-297); experiment: Retrogenix cell microarray: fixed HEK293 cells reverse-transfected with the target, AF647 anti-human IgG detection
T3 construct: whole, on cells; Control target; also called MS4A1
T3 sequence (looked up): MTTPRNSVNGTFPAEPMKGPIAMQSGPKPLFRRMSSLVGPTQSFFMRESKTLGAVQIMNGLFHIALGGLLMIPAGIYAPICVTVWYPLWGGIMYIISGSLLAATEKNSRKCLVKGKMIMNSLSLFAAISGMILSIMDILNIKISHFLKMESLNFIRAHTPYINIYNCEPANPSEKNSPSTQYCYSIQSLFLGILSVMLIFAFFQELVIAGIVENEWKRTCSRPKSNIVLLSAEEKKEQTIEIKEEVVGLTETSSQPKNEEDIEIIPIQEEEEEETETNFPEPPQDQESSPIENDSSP
Description: (§1) Slides were analyzed as above.
(§2) The plasmid samples for control and potential target receptors were then re-arrayed onto new chips for repeat analyses in duplicate. […] Control experiments using the same cells but no primary antibody (FIG. .

[4] = molecular target: T4, EGFR (human, UniProt P00533 25-1210); experiment: as above
T4 construct: whole, on cells; Control target on the confirmation array
Description: as §1, §2

binding result [1]: no binding | IC50, IL-15-induced M07e cell proliferation [2]: 9.79 µg/mL | binding result [3]: no binding (tested: 5 µg/ml) | binding result [4]: no binding (tested: 5 µg/ml)
B1: IgG1-MIKβ1 (humanized) (antibody, V domains shown)
VH: EVQLLESGGGLVQPGGSLRLSCAASGFSVTSYGVHWIRQAPGKGLEWLGVIWSGGSTDYNAAFISRLTISKDNSKNTVYFQMNSLQAEDTAIYYCARAGDYNYDGFAYWGQGTLVTVSS
VL: DIVLTQSPSSLSASVGDRVTITCSGSSSVSFMYWYQQRPGKAPRLLIYDTSNLASGVPSRFSGSGSGTSYTFTISSLQPEDIATYYCQQWSTYPLTFGQGTKVEVK
notes: also called VillMab-1; VillMAB-1

— patent publication US20230357420A1 (VILLARIS THERAPEUTICS, published 2023)
